Source: US20210324080A1 (JIANGSU HUAIYU PHARMACEUTICAL, published 2021)

B1: 31C12F3 fully human CTLA-4 antibody (human IgG1, kappa) (antibody, V domains shown)
VH: QVQLVESGGGVVQPGRSLILSCAASGFTFSSYGMHWVRQAPGKGLEWVAVVWYDGSNKYYADSVKGRFTISRDNSKNTLYLQMSSLRAEDTAVYYCARGGIVVPGLFEYWGQGSLVTVSS
VL: DIQMTQSPSSLSASVGDRVAITCRTSQSISNLLNWYQQKPGKAPELLIYAPSSFQSGVPSRFRGSGSGTDFTLTISSLQPEDFATYYCQQSYSTPFTFGPGTKVDIK
notes: also called mAb010
B2: 92C8B6 fully human CTLA-4 antibody (human IgG1, kappa) (antibody, V domains shown)
VH: QVQLVESGGGVVQPGRSLRLSCAASGFTFSNFGMHWVRQAPGKGLEWVAVIWYDGSNKYYADSVKGRFTISRDNSKNTLFLQMNGLRAEDTAVYYCAKGGILMAGTLDYWGQGTLVTVSS
VL: DIQMTQSPSSLSASVGDRVTITCRASQSVSTYLNWYQQKPGKAPKLLIYAASSFQSGVPSRFSGSGSGTDFTLTISSLQPEDFATYFCQQSYSTPFTFGPGTKVDIK
notes: also called mAb42; mAb042

Legend:
[1] = molecular target: T1, human CTLA-4 (Y201V), full length, on transfected cells (human, UniProt P16410 36-223); experiment: FACS, human CTLA-4 expressing cells
T1 construct: whole, on cells; also called hCTLA-4; HEK293-hCTLA-4 (Y201V)
T1 sequence (looked up): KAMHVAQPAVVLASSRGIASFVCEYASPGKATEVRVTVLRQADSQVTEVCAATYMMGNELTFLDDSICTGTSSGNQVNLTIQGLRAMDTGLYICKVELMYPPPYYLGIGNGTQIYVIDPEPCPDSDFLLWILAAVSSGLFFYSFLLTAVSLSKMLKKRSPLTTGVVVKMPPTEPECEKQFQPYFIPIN

[2] = molecular target: T2, CTLA-4 on human T lymphocytes (PBMC, CD3+ T cells) (human, UniProt P16410 36-223); experiment: cell-based or functional assay
T2 sequence (looked up): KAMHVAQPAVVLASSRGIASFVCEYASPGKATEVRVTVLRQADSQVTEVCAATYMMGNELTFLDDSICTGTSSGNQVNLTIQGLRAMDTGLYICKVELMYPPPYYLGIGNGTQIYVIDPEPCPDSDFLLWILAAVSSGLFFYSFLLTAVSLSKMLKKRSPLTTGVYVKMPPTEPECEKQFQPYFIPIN

[3] = molecular target: T3, CTLA-4-hFc (immunogen A; hFc-labeled CTLA-4 extracellular domain protein) (human, UniProt P16410 36-161); experiment: receptor-ligand blocking assay: CTLA-4 protein, antibody titrated, blocked ligand B7.1, inhibition (%)
T3 construct: range 36-161; Made in HEK293 cells, purified on protein A; also called CLTA-4-hFc; CTLA-4 protein; not shown: human IgG Fc fragment (hFc) of the pCpC vector
T3 sequence (looked up): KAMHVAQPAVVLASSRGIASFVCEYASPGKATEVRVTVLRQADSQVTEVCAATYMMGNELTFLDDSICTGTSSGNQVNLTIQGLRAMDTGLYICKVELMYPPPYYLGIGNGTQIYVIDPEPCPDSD
Method: (§1) CTLA-4 extracellular domain protein (CTLA-4-hFc) was diluted with PBS to a final concentration of 1.0 μg/mL, and then added to a 96-well ELISA plate as 100 μl per well. The plate was covered with a plastic film and incubated overnight at 4° C. The plate was washed twice with plate washing solution [PBS containing 0.01% (v/v) Tween 20] on the next day, and added with blocking solution [PBS containing 0.01% (v/v) Tween 20 and 1% (w/w) BSA] and blocked at room temperature for 2 hours. […] After 2 hours, the plate was washed 3 times with a plate washing solution [PBS containing 0.01% (v/v) Tween 20]. HRP (horseradish peroxidase) labeled avidin diluent (purchased from Sigma) was added 100 microliters per well, and after the plate was incubated for 2 hours at 37° C., it was washed with plate washing solution [PBS containing 0.01% (v/v) Tween 20] for 3 times. […] TMB substrate was added to each well. After incubated at room temperature for 30 minutes, the plate was added with […] stop solution (1.0N HCl) to each well. An ELISA plate reader (SpectraMax 384plus, Molecular Device) was used to read the A450 nm value.

[4] = molecular target: T3, CTLA-4-hFc (immunogen A; hFc-labeled …); experiment: blocking assay, CTLA-4 protein, competitor B7.2
Method: as §1

[5] = molecular target: T4, recombinant His-labeled hCTLA-4 ECD protein (human, UniProt P16410 36-161); experiment: SPR Biacore T200, antibody captured by anti-human Fc, 1:1 model
T4 construct: extracellular domain; also called human CTLA-4 ECD; not shown: His label
T4 sequence (looked up): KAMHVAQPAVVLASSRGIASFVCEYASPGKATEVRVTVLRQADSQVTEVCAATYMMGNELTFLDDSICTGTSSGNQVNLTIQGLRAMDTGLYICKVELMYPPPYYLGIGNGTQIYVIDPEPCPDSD
Method: Anti-human Fc IgG was fixed on flow cell 1 and 2. HBS-EP+ (10 mmol/L HEPES, 150 mmol/L NaCl, 3 mM EDTA, 0.05% P20, pH 7.4) was used as the running buffer, and anti-human Fc IgG was fixed using the fixing wizard template. The flow cells 1 and 2 connected in series with S CM5 sensor chip were activated with freshly mixed 50 mmol/L NHS and 200 mmol/L EDC. Anti-human Fc IgG was diluted to […] with 10 mmol/L NaAC (pH 4.5) and injected into activated flow cells 1 and 2. The remaining active coupling sites were blocked with 1 mol/L ethanolamine.
The recombinant His-labeled hCTLA-4 ECD protein was diluted to 50 nmol/L, and then serially diluted 4 times with HBS-EP+ buffer at a 2-fold ratio. […] Each antibody was injected into the CM5 sensor flow cell 2 at a flow rate of 10 μL/min to achieve a response of 230 RU. Then the prepared His-labeled hCTLA-4ECD protein was injected into flow cells 1 and 2 at a flow rate of 30 μL/min for 180 seconds. The buffer flow was maintained for 400 seconds for dissociation measurement (30 μL/min). To remove the tested antibody from the surface, 10 mmol/L glycine-HCl pH1.5 was injected for 20 seconds (30 μL/min). Flow cell 1 was used as a reference flow cell. The above steps were repeated for each concentration of serially diluted His-labeled CTLA-4ECD protein. The KD value of each antibody was evaluated using Biacore T200 evaluation software 1.0, and a 1:1 binding model was used to fit the data.

[6] = molecular target: T3, CTLA-4-hFc (immunogen A; hFc-labeled …); experiment: blocking assay, CTLA-4 protein, competitor B7.1
Method: as §1

MFI at 0.000128 nM [1] | MFI at 0.0128 nM [1] | MFI at 0.064 nM [1] | MFI at 0.32 nM [1] | MFI at 1.6 nM [1] | MFI at 8 nM [1] | MFI at 40 nM [1] | MFI at 200 nM [1] | IL-2 secretion, pg/ml, at 0.13 ug/ml, N = 1 [2] [pg/mL] | IL-2 secretion, pg/ml, at 0.13 ug/ml, N = 2 [2] [pg/mL] | IL-2 secretion, pg/ml, at 0.37 ug/ml, N = 1 [2] [pg/mL] | IL-2 secretion, pg/ml, at 0.37 ug/ml, N = 2 [2] [pg/mL] | IL-2 secretion, pg/ml, at 1.1 ug/ml, N = 1 [2] [pg/mL] | IL-2 secretion, pg/ml, at 1.1 ug/ml, N = 2 [2] [pg/mL] | IL-2 secretion, pg/ml, at 3.3 ug/ml, N = 1 [2] [pg/mL] | IL-2 secretion, pg/ml, at 3.3 ug/ml, N = 2 [2] [pg/mL] | IL-2 secretion, pg/ml, at 10 ug/ml, N = 1 [2] [pg/mL] | IL-2 secretion, pg/ml, at 10 ug/ml, N = 2 [2] [pg/mL] | IL-2 secretion, pg/ml, at 30 ug/ml, N = 1 [2] [pg/mL] | IL-2 secretion, pg/ml, at 30 ug/ml, N = 2 [2] [pg/mL] | other results | Binder
3 | 34 | 96 | 260 | 547 | 756 | 941 | 998 | 1660 | 1630 | 1760 | 2000 | 2650 | 3630 | 4420 | 3330 | 5020 | 3810 | 5920 | 7370 | IC50 (read off the curve) [3]: ~1 nM; % Block at 0.000128 nM [4]: 0%; % Block at 0.0128 nM [4]: 25.6%; % Block at 0.064 nM [4]: 48.1%; % Block at 0.32 nM [4]: 84.4%; % Block at 1.6 nM [4]: 99%; % Block at 8 nM [4]: 99.1%; % Block at 40 nM [4]: 99.1%; % Block at 200 nM [4]: 99.2%; Kd [5]: 2.62 nM; koff [5]: 0.00118 s⁻¹; kon [5]: 450000 M⁻¹ s⁻¹; % Block at 0.000128 nM [6]: 0%; % Block at 0.0128 nM [6]: 5.1%; % Block at 0.064 nM [6]: 30.4%; % Block at 0.32 nM [6]: 74.5%; % Block at 1.6 nM [6]: 95.9%; % Block at 8 nM [6]: 98.5%; % Block at 40 nM [6]: 99.1%; % Block at 200 nM [6]: 99.3% | B1
3 | 23 | 67 | 203 | 509 | 827 | 1040 | 1060 | 1570 | 1390 | 2810 | 1860 | 3610 | 2930 | 4860 | 3490 | 6670 | 5200 | 7240 | 6590 | IC50 (read off the curve) [3]: ~2 nM; % Block at 0.000128 nM [4]: 0%; % Block at 0.0128 nM [4]: 25%; % Block at 0.064 nM [4]: 36.7%; % Block at 0.32 nM [4]: 78.5%; % Block at 1.6 nM [4]: 98.7%; % Block at 8 nM [4]: 99.2%; % Block at 40 nM [4]: 99.2%; % Block at 200 nM [4]: 99.2%; Kd [5]: 2.52 nM; koff [5]: 0.00187 s⁻¹; kon [5]: 744000 M⁻¹ s⁻¹; % Block at 0.000128 nM [6]: 0%; % Block at 0.0128 nM [6]: 5.3%; % Block at 0.064 nM [6]: 21.4%; % Block at 0.32 nM [6]: 65.1%; % Block at 1.6 nM [6]: 93.7%; % Block at 8 nM [6]: 98.1%; % Block at 40 nM [6]: 98.9%; % Block at 200 nM [6]: 99.3% | B2
